Data from paper PMC11004729.

Assays:
[1] = target: HuR (GST-HuR) (UniProt Q15717 1-326); test: EMSA
[2] = target: T1, FXR1 (GST-FXR1) (Homo sapiens, UniProt P51114 1-621); test: EMSA
[3] = target: T1, FXR1 (GST-FXR1); test: competition EMSA
[4] = target: T1, FXR1 (GST-FXR1); test: EMSA; remark: listed apart in the source

T1 sequence (P51114 whole entry): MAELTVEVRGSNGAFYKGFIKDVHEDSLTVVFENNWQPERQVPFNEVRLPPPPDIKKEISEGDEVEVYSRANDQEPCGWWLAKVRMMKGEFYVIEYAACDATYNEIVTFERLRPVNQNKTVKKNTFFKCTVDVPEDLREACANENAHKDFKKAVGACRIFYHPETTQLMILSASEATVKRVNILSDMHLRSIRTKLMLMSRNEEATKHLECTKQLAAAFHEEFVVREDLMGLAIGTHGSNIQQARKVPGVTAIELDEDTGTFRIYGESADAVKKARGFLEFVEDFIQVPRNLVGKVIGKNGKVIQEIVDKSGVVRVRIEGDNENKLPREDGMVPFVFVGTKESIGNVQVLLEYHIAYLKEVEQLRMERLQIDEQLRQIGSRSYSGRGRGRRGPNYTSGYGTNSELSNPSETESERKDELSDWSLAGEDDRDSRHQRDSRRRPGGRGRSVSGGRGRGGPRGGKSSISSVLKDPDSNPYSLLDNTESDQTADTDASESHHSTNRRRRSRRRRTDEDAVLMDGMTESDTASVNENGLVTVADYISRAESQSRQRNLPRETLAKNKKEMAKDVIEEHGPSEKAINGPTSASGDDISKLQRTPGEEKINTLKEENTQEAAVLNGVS
HuR (GST-HuR), sequence (Q15717 whole entry): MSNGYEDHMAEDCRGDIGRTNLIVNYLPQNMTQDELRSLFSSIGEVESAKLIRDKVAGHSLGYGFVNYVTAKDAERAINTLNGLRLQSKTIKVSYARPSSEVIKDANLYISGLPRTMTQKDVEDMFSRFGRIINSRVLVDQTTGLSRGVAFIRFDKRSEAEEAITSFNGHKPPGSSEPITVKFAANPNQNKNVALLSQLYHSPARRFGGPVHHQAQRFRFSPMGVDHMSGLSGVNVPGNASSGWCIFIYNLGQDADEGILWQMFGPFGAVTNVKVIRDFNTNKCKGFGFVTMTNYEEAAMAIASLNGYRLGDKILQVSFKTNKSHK

Question: Does CUUGUGAUUAUUUAUUAUUUAUUUAUUAUUUAUUUAUUUACAGAGAUGAA (ssRNA) [TNFα 3'UTR 50-mer (probe A)] bind [1]?
Answer: binds

Question: Does CUUGUGAUUAUUUAUUAUUUAUUUAUUAUUUAUUUAUUUACAGAGAUGAA (ssRNA) [TNFα 3'UTR 50-mer (probe A)] bind [2]?
Answer: binds

Question: Does AUUUAAUUUAAUUUAAUUUAAUUUA (ssRNA) [(AUUUA)5 (probe B)] bind [3]?
Answer: binds

Question: Does UUAUUUAUUUUAUUUAUUUUAUUUAUU (ssRNA) [(UUAUUUAUU)3 (probe C)] bind [3]?
Answer: binds

Question: Does AUUUA (ssRNA) [AUUUA monomer] bind [4]?
Answer: no binding
